Assay results: paper PMC4031084, “The Phytochrome B/Phytochrome C Heterodimer Is Necessary for Phytochrome C-Mediated Responses in Rice Seedlings” (PLoS ONE, 2014)

How the values were obtained:
recombinant rice phyA = target: T1, recombinant rice phyA (Oryza sativa, UniProt Q10DU0); experiment: R/FR absorbance difference spectroscopy of the purified holoprotein; assay type: binding; details: covalent; chromophore assembled in E. coli
T1 construct: full length; phytochromobilin-producing E. coli Rosetta 2; homodimer on SEC
T1 sequence (Q10DU0 1-1128): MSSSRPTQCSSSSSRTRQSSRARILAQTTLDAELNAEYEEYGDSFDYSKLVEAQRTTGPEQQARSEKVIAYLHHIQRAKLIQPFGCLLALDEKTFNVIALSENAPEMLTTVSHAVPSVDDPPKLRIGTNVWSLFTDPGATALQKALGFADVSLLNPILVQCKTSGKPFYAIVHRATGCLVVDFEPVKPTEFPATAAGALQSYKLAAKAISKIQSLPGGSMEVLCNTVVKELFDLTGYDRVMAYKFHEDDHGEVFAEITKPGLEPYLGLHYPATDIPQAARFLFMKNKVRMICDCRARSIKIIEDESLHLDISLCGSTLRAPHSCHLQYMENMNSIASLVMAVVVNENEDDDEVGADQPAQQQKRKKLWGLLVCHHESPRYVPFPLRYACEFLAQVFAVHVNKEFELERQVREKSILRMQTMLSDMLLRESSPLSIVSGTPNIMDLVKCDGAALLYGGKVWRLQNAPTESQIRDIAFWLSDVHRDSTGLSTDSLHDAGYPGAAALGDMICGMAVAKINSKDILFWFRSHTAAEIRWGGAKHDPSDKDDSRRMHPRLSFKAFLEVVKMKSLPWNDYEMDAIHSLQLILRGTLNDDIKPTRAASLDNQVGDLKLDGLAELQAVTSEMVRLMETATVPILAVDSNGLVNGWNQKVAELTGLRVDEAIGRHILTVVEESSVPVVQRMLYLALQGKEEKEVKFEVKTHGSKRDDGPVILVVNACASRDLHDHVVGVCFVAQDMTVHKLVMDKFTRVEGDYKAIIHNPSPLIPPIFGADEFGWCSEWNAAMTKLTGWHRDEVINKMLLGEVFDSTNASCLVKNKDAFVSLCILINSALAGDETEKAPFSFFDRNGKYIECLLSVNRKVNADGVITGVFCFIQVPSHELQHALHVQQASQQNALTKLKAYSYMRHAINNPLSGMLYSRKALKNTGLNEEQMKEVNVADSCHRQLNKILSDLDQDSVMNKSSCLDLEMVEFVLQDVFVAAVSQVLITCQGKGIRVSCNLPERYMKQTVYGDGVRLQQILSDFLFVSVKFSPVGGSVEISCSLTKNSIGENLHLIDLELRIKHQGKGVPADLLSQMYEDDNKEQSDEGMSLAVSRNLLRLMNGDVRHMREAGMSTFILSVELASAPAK

recombinant rice phyC = target: T2, recombinant rice phyC (Oryza sativa, UniProt Q10CQ8); experiment: as above; assay type: binding; details: covalent; chromophore assembled in E. coli
T2 construct: full length; phytochromobilin-producing E. coli Rosetta 2; monomer on SEC
T2 sequence (Q10CQ8 1-1137): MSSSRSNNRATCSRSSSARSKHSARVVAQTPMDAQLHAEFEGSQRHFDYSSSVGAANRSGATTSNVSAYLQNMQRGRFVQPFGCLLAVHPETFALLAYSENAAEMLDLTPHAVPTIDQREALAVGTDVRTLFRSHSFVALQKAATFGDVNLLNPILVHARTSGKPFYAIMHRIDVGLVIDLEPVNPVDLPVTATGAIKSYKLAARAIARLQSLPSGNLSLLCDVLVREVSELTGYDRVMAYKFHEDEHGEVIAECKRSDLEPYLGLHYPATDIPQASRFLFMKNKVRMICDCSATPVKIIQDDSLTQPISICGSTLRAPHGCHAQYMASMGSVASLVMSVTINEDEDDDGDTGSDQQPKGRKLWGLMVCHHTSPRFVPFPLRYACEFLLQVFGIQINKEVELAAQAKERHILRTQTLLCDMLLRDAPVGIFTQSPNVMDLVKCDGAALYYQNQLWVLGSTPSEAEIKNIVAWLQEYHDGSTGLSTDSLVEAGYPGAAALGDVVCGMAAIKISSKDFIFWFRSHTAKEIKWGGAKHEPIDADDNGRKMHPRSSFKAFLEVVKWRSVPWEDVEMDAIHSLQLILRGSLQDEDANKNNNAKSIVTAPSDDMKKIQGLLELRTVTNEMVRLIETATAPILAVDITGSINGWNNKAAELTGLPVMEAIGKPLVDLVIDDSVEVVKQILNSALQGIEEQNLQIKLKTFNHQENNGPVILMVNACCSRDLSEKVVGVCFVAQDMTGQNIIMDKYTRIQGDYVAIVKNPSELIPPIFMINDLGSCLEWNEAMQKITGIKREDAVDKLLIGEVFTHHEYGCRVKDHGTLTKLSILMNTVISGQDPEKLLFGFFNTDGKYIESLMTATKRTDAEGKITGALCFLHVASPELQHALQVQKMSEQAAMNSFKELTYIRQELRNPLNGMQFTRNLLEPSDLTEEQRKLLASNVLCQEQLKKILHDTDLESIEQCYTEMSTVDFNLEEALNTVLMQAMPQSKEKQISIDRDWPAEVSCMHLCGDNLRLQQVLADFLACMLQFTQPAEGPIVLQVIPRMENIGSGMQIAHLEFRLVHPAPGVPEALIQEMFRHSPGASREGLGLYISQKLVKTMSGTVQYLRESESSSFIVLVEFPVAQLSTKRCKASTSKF

[1] = target: the molecule itself; experiment: SEC; protein extracts (1 mg total soluble protein) of etiolated seedlings of WT and phytochrome single and double mutants on Superdex 200 HR 10/30; 50 mM Na-phosphate pH 7.0, 150 mM NaCl, 4 C; fractions immunoblotted with anti-PHYA, anti-PHYB, anti-PHYC; column calibrated with molecular weight standards
[2] = target: the molecule itself; experiment: SEC; recombinant phyA or phyC from E. coli fractionated on the same column; fractions #17-#24 immunoblotted with anti-His tag or anti-phytochrome antibodies

In the case of `C=CC1=C(C)C(=CC2=NC(=Cc3[nH]c(C=C4NC(=O)C(C)C4=CC)c(C)c3CCC(=O)O)C(CCC(=O)O)=C2C)NC1=O` (centres unmarked) [phytochromobilin], the “R/FR absorbance difference spectroscopy of the purified holoprotein” value (recombinant rice phyA) is reported as “recombinant phyA was also expressed using the same experimental procedure” and the “R/FR absorbance difference spectroscopy of the purified holoprotein” value (recombinant rice phyC) is reported as “Recombinant phyC with phytochromobilins as a chromophore was expressed in E. coli”.

B1: rice phytochrome B (phyB), native (natural protein, UniProt Q10MG9 1-1171, looked up)
chain: MASGSRATPTRSPSSARPAAPRHQHHHSQSSGGSTSRAGGGGGGGGGGGGGAAAAESVSKAVAQYTLDARLHAVFEQSGASGRSFDYTQSLRASPTPSSEQQIAAYLSRIQRGGHIQPFGCTLAVADDSSFRLLAYSENTADLLDLSPHHSVPSLDSSAVPPPVSLGADARLLFAPSSAVLLERAFAAREISLLNPLWIHSRVSSKPFYAILHRIDVGVVIDLEPARTEDPALSIAGAVQSQKLAVRAISRLQALPGGDVKLLCDTVVEYVRELTGYDRVMVYRFHEDEHGEVVAESRRNNLEPYIGLHYPATDIPQASRFLFRQNRVRMIADCHAAPVRVIQDPALTQPLCLVGSTLRSPHGCHAQYMANMGSIASLVMAVIISSGGDDDHNISRGSIPSAMKLWGLVVCHHTSPRCIPFPLRYACEFLMQAFGLQLNMELQLAHQLSEKHILRTQTLLCDMLLRDSPTGIVTQSPSIMDLVKCDGAALYYHGKYYPLGVTPTEVQIKDIIEWLTMCHGDSTGLSTDSLADAGYPGAAALGDAVSGMAVAYITPSDYLFWFRSHTAKEIKWGGAKHHPEDKDDGQRMHPRSSFKAFLEVVKSRSLPWENAEMDAIHSLQLILRDSFRDSAEGTSNSKAIVNGQVQLGELELRGIDELSSVAREMVRLIETATVPIFAVDTDGCINGWNAKVAELTGLSVEEAMGKSLVNDLIFKESEETVNKLLSRALRGDEDKNVEIKLKTFGPEQSKGPIFVIVNACSSRDYTKNIVGVCFVGQDVTGQKVVMDKFINIQGDYKAIVHNPNPLIPPIFASDENTCCSEWNTAMEKLTGWSRGEVVGKLLVGEVFGNCCRLKGPDALTKFMIVLHNAIGGQDCEKFPFSFFDKNGKYVQALLTANTRSRMDGEAIGAFCFLQIASPELQQAFEIQRHHEKKCYARMKELAYIYQEIKNPLNGIRFTNSLLEMTDLKDDQRQFLETSTACEKQMSKIVKDASLQSIEDGSLVLEKGEFSLGSVMNAVVSQVMIQLRERDLQLIRDIPDEIKEASAYGDQYRIQQVLCDFLLSMVRFAPAENGWVEIQVRPNIKQNSDGTDTMLFLFRFACPGEGLPPEIVQDMFSNSRWTTQEGIGLSICRKILKLMGGEVQYIRESERSFFHIVLELPQPQQAASRGTS
notes: phytochrome B of rice (Oryza sativa L. cv. Nipponbare), native protein in seedling extracts; Native photoreceptor; source: endogenous, soluble protein extract of rice seedlings (etiolated or white-light-grown)
For B1, the “stoichiometry N” value [1] was 2.

B2: rice phytochrome A (phyA), native (natural protein, UniProt Q10DU0 1-1128, looked up)
chain: MSSSRPTQCSSSSSRTRQSSRARILAQTTLDAELNAEYEEYGDSFDYSKLVEAQRTTGPEQQARSEKVIAYLHHIQRAKLIQPFGCLLALDEKTFNVIALSENAPEMLTTVSHAVPSVDDPPKLRIGTNVWSLFTDPGATALQKALGFADVSLLNPILVQCKTSGKPFYAIVHRATGCLVVDFEPVKPTEFPATAAGALQSYKLAAKAISKIQSLPGGSMEVLCNTVVKELFDLTGYDRVMAYKFHEDDHGEVFAEITKPGLEPYLGLHYPATDIPQAARFLFMKNKVRMICDCRARSIKIIEDESLHLDISLCGSTLRAPHSCHLQYMENMNSIASLVMAVVVNENEDDDEVGADQPAQQQKRKKLWGLLVCHHESPRYVPFPLRYACEFLAQVFAVHVNKEFELERQVREKSILRMQTMLSDMLLRESSPLSIVSGTPNIMDLVKCDGAALLYGGKVWRLQNAPTESQIRDIAFWLSDVHRDSTGLSTDSLHDAGYPGAAALGDMICGMAVAKINSKDILFWFRSHTAAEIRWGGAKHDPSDKDDSRRMHPRLSFKAFLEVVKMKSLPWNDYEMDAIHSLQLILRGTLNDDIKPTRAASLDNQVGDLKLDGLAELQAVTSEMVRLMETATVPILAVDSNGLVNGWNQKVAELTGLRVDEAIGRHILTVVEESSVPVVQRMLYLALQGKEEKEVKFEVKTHGSKRDDGPVILVVNACASRDLHDHVVGVCFVAQDMTVHKLVMDKFTRVEGDYKAIIHNPSPLIPPIFGADEFGWCSEWNAAMTKLTGWHRDEVINKMLLGEVFDSTNASCLVKNKDAFVSLCILINSALAGDETEKAPFSFFDRNGKYIECLLSVNRKVNADGVITGVFCFIQVPSHELQHALHVQQASQQNALTKLKAYSYMRHAINNPLSGMLYSRKALKNTGLNEEQMKEVNVADSCHRQLNKILSDLDQDSVMNKSSCLDLEMVEFVLQDVFVAAVSQVLITCQGKGIRVSCNLPERYMKQTVYGDGVRLQQILSDFLFVSVKFSPVGGSVEISCSLTKNSIGENLHLIDLELRIKHQGKGVPADLLSQMYEDDNKEQSDEGMSLAVSRNLLRLMNGDVRHMREAGMSTFILSVELASAPAK
notes: phytochrome A of rice (Oryza sativa L. cv. Nipponbare), native protein in seedling extracts; source: endogenous, soluble protein extract of etiolated rice seedlings
B2 was tested, and the “stoichiometry N” value [1] was 2.

B3: recombinant rice phyA with phytochromobilin (natural protein, UniProt Q10DU0 1-1128, looked up)
chain: MSSSRPTQCSSSSSRTRQSSRARILAQTTLDAELNAEYEEYGDSFDYSKLVEAQRTTGPEQQARSEKVIAYLHHIQRAKLIQPFGCLLALDEKTFNVIALSENAPEMLTTVSHAVPSVDDPPKLRIGTNVWSLFTDPGATALQKALGFADVSLLNPILVQCKTSGKPFYAIVHRATGCLVVDFEPVKPTEFPATAAGALQSYKLAAKAISKIQSLPGGSMEVLCNTVVKELFDLTGYDRVMAYKFHEDDHGEVFAEITKPGLEPYLGLHYPATDIPQAARFLFMKNKVRMICDCRARSIKIIEDESLHLDISLCGSTLRAPHSCHLQYMENMNSIASLVMAVVVNENEDDDEVGADQPAQQQKRKKLWGLLVCHHESPRYVPFPLRYACEFLAQVFAVHVNKEFELERQVREKSILRMQTMLSDMLLRESSPLSIVSGTPNIMDLVKCDGAALLYGGKVWRLQNAPTESQIRDIAFWLSDVHRDSTGLSTDSLHDAGYPGAAALGDMICGMAVAKINSKDILFWFRSHTAAEIRWGGAKHDPSDKDDSRRMHPRLSFKAFLEVVKMKSLPWNDYEMDAIHSLQLILRGTLNDDIKPTRAASLDNQVGDLKLDGLAELQAVTSEMVRLMETATVPILAVDSNGLVNGWNQKVAELTGLRVDEAIGRHILTVVEESSVPVVQRMLYLALQGKEEKEVKFEVKTHGSKRDDGPVILVVNACASRDLHDHVVGVCFVAQDMTVHKLVMDKFTRVEGDYKAIIHNPSPLIPPIFGADEFGWCSEWNAAMTKLTGWHRDEVINKMLLGEVFDSTNASCLVKNKDAFVSLCILINSALAGDETEKAPFSFFDRNGKYIECLLSVNRKVNADGVITGVFCFIQVPSHELQHALHVQQASQQNALTKLKAYSYMRHAINNPLSGMLYSRKALKNTGLNEEQMKEVNVADSCHRQLNKILSDLDQDSVMNKSSCLDLEMVEFVLQDVFVAAVSQVLITCQGKGIRVSCNLPERYMKQTVYGDGVRLQQILSDFLFVSVKFSPVGGSVEISCSLTKNSIGENLHLIDLELRIKHQGKGVPADLLSQMYEDDNKEQSDEGMSLAVSRNLLRLMNGDVRHMREAGMSTFILSVELASAPAK
modifications: phytochromobilin as chromophore
notes: full length rice phytochrome A; also called recombinant phyA; source: E. coli Rosetta 2 cells expressing phytochromobilin, purified; not shown: His6, C-terminal, kept
For B3, the “stoichiometry N” value [2] was 2.
